The text below walks through data of patent publication US12648964B2, “Chimeric Tim receptors and uses thereof” (CERO THERAPEUTICS HOLDINGS, INC., priority 2020, dated 2026).

“Also recorded” adds a separate entry of the source. Where two headings read alike, the source gives them in different places.

Experiment [1] relates to Kuramochi cells. The settings on record: BRCA-2 mutated Kuramochi cell line. Here is the method: (§1) In ovarian tumors, poly (ADP-ribose) polymerase (PARP) inhibitors, such as Niraparib, are clinically approved drugs which target DNA damage response pathways. Responses are rarely complete, with relapse common after treatment. To induce Ptd-Ser exposure, BRCA-2 mutated Kuramochi cell line was treated with therapeutic doses of the PARP inhibitor Niraparib.

In experiment [2] the test system is Kuramochi cells. The conditions noted are these: 1.56 or 25 μM Niraparib, 48 hours, vs DMSO. Here is the method:
FIG. 7A: Flow cytometry measurement of surface PtdSer. Kuramochi cells were treated with 1.56 or 25 μM Niraparib or with equivalent volume of DMSO (control). 48 hours later samples were trypsinized and stained using a Tim4-Fc followed by a fluorescently-labeled secondary antibody to the Tim4-Fc. […] All data were collected via IncuCyte.
as §1

Experiment [3] deals with E7 TCR-T cells. The experiment in a line: E7-specific T cell proliferation by CT Violet dye dilution after co-culture with E7 peptide-pulsed CER-T cells. The experiment is classed as cell-based. The conditions noted are these: for stimulation / proliferation responses of E7-specific T cells: CER-T pulsed with E7 peptides, CT Violet dilution after 6 days. How it is done: FIG. 1A: a schematic of pCTX247 and pCTX1107 chimeric Tim4 receptors and pCTX1107 T cells pulsed with E7 peptides and co-cultured with E7-specific T cells to evaluate their antigen presentation capacity. FIG. 1B: E7-specific proliferation responses were measured by CT Violet dye dilution after 6 days in the presence of autologous CER-T (TLR containing or non-containing CERs) pulsed with E7 peptides. […] All data collected by FACS. Cell tracing show E7 TCR-T cells using an anti-mouse TCRb. E7 TCR-T cells were labeled with CT Violet at the time of co-culture.
Chimeric Tim4 receptor-T cells were tested to determine whether they can capture and present soluble antigens and trigger activation and proliferation of recombinant E7-restricted T cell clones in a co-culture system. First expression of Tim4 was confirmed on transduced CER T cells by flow cytometry. Tim4 binding domain-CD28 transmembrane-CD28 signaling domain-CD3z signaling domain (CTX247) and Tim4 binding domain-CD28 signaling domain-CD3z signaling domain-TLR2 signaling domain (CTX1107) were stained for Tim4 and EGFR, a transduction marker encoded on each vector. […] E7 TCRs proliferate in response to APCs pulsed with E7 peptide through MHC class I. For autologous APCs, CD4+ and CD8+ chimeric Tim4 receptor T cell products transduced with different Tim-4 chimeric receptors were pulsed with a pool of 15-mer peptides containing 11-mer overlaps derived from the E7 protein from HPV16 or vehicle. Chimeric Tim4 receptor T cells were pulsed at 37° C. for 4 hrs with E7 peptides and tested for their capacity to trigger E7-specific activation and proliferation. E7-TCR cell surface activation marker responses were evaluated by flow cytometry 24 hours following co-culture with chimeric Tim4 receptor-T cell products. After an additional 5 days of co-culture, proliferative responses were assessed by Cell Trace (CT) Violet dilution. […]

A further experiment deals with phosphatidylserine. The conditions noted are these: cited from earlier work; for binding at High PtdSer: high phosphatidylserine density; for binding at Low PtdSer: low phosphatidylserine density.
Experiment [4] concerns E7 TCR-T cells. Kind of experiment: E7 TCR-T cell activation markers CD25/CD69 after co-culture with E7 peptide-pulsed CER-T cells (flow cytometry). The format is cell-based. How it is done: FIG. 2: T cells containing chimeric Tim4 receptors with a TLR intracellular signaling domain added to the CD3ζ signaling domain (and optionally a CD28 signaling domain) are strong stimulators of autologous E7-specific T cell responses. CER-T cells were pulsed with E7 peptide and tested for their capacity to trigger an autologous E7-specific T cell response. CD25, a T cell activation marker, was evaluated on E7 TCR-T cells, 24 hours after CER-T cells were pulsed with E7 peptides.
FIG. 3: T cells containing chimeric Tim4 receptors with a TLR intracellular signaling domain added to the CD3ζ signaling domain (and optionally a CD28 signaling domain) are strong stimulators of autologous E7-specific T cell responses. CER-T cells were pulsed with E7 peptide and tested for their capacity to trigger an autologous E7-specific T cell response. CD69, an early marker for T cell activation, was evaluated on E7 TCR-T cells, 24 hours after CER-T cells were pulsed with E7 peptides.
Chimeric Tim4 receptor-T cells were tested to determine whether they can capture and present soluble antigens and trigger activation and proliferation of recombinant E7-restricted T cell clones in a co-culture system. First expression of Tim4 was confirmed on transduced CER T cells by flow cytometry. Tim4 binding domain-CD28 transmembrane-CD28 signaling domain-CD3z signaling domain (CTX247) and Tim4 binding domain-CD28 signaling domain-CD3z signaling domain-TLR2 signaling domain (CTX1107) were stained for Tim4 and EGFR, a transduction marker encoded on each vector. […] E7 TCRs proliferate in response to APCs pulsed with E7 peptide through MHC class I. For autologous APCs, CD4+ and CD8+ chimeric Tim4 receptor T cell products transduced with different Tim-4 chimeric receptors were pulsed with a pool of 15-mer peptides containing 11-mer overlaps derived from the E7 protein from HPV16 or vehicle. Chimeric Tim4 receptor T cells were pulsed at 37° C. for 4 hrs with E7 peptides and tested for their capacity to trigger E7-specific activation and proliferation. E7-TCR cell surface activation marker responses were evaluated by flow cytometry 24 hours following co-culture with chimeric Tim4 receptor-T cell products. After an additional 5 days of co-culture, proliferative responses were assessed by Cell Trace (CT) Violet dilution.
A higher frequency of E7-TCR containing T cells expressed both activation markers 24 hours after co-culture (FIG. 2).
Background: A flow cytometer gives signals particle by particle.

[5] abbreviates: 24 hours after CER-T cells pulsed with E7 peptides.

As to `NC(=O)c1cccc2cn(-c3ccc([C@@H]4CCCNC4)cc3)nc12` [Niraparib], the “inhibition of growth of Kuramochi cells” value in the experiment on Kuramochi cells [1] is recorded as “effective in inhibiting growth”. For the same molecule, in the experiment on Kuramochi cells [2], the “surface PtdSer (membrane phospholipid symmetry)” value is listed as “elicits changes in membrane phospholipid symmetry, in a dose dependent manner”.

B1: pCTX247: Tim4 binding domain-CD28 transmembrane-CD28 signaling domain-CD3z signaling domain (protein)
chain: ETVVTEVLGHRVTLPCLYSSWSHNSNSMCWGKDQCPYSGCKEALIRTDGMRVTSRKSAKYRLQGTIPRGDVSLTILNPSESDSGVYCCRIEVPGWFNDVKINVRLNLQRASTTTHRTATTTTRRTTTTSPTTTRQMTTTPAALPTTVVTTPDLTTGTPLQMTTIAVFTTANTCLSLTPSTLPEEATGLLTPEPSKEGPILTAESETVLPSDSWSSVESTSADTVLLTSKESKVWDLPSTSHVSMWKTSDSVSSPQPGASDTAVPEQNKTTKTGQMDGIPMSMKNEMPISQFWVLVVVGGVLACYSLLVTVAFIIFWVRSKRSRLLHSDYMNMTPRRPGPTRKHYQPYAPPRDFAAYRSRVKFSRSADAPAYQQGQNQLYNELNLGRREEYDVLDKRRGRDPEMGGKPRRKNPQEGLYNELQKDKMAEAYSEIGMKGERRRGKGHDGLYQGLSTATKDTYDALHMQALPPR
Consider B1, for which the “stimulation / proliferation responses of E7-specific T cells” value in the experiment on E7 TCR-T cells [3] was “not stimulatory”.

B2: Tim-4: T-cell immunoglobulin and mucin domain containing protein 4, phosphatidylserine receptor (protein, UniProt Q96H15 25-378, looked up)
T-cell immunoglobulin and …: ETVVTEVLGHRVTLPCLYSSWSHNSNSMCWGKDQCPYSGCKEALIRTDGMRVTSRKSAKYRLQGTIPRGDVSLTILNPSESDSGVYCCRIEVPGWFNDVKINVRLNLQRASTTTHRTATTTTRRTTTTSPTTTRQMTTTPAALPTTVVTTPDLTTGTPLQMTTIAVFTTANTCLSLTPSTLPEEATGLLTPEPSKEGPILTAESETVLPSDSWSSVESTSADTVLLTSKESKVWDLPSTSHVSMWKTSDSVSSPQPGASDTAVPEQNKTTKTGQMDGIPMSMKNEMPISQLLMIIAPSLGFVLFALFVAFLLRGKLMETYCSQKHTRLDYIGDSKNVLNDVQHGREDEDGLFTL
Turning to B2, in the experiment with phosphatidylserine, the Cooperativity entry is listed as “Yes”, the “binding at High PtdSer” value was “Strong” and the “binding at Low PtdSer” value is recorded as “Minimal”. The “binding at Low PtdSer” value in the experiment on phosphatidylserine (listed as Tim4 binding domain) is listed as “binds minimally”.

B3: Tim-1: T-cell immunoglobulin and mucin domain containing protein 1, phosphatidylserine receptor (protein, UniProt Q96D42 21-364, looked up)
Hepatitis A virus cellular …: SVKVGGEAGPSVTLPCHYSGAVTSMCWNRGSCSLFTCQNGIVWTNGTHVTYRKDTRYKLLGDLSRRDVSLTIENTAVSDSGVYCCRVEHRGWFNDMKITVSLEIVPPKVTTTPIVTTVPTVTTVRTSTTVPTTTTVPMTTVPTTTVPTTMSIPTTTTVLTTMTVSTTTSVPTTTSIPTTTSVPVTTTVSTFVPPMPLPRQNHEPVATSPSSPQPAETHPTTLQGAIRREPTSSPLYSYTTDGNDTVTESSDGLWNNNQTQLFLEHSLLTANTTKGIYAGVCISVLVLLALLGVIIAKKYFFKKEVQQLSVSFSSLQIKALQNAVEKEVQAEDNIYIENSLYATD
For B3, in the experiment with phosphatidylserine, the “binding at High PtdSer” value is “Strong” and the “binding at Low PtdSer” value is given as “Moderate”. Moreover, in the experiment with phosphatidylserine (listed as Tim1 binding domain), the “binding at Low PtdSer” value is on record as “binds more strongly to a lower phosphatidylserine density”. Besides, the “binding at Moderate PtdSer” value in the experiment with phosphatidylserine (moderate phosphatidylserine density) is listed as “Strong”.

B4: pCTX1107: Tim4 binding domain-CD28 signaling domain-CD3z signaling domain-TLR2 signaling domain (protein)
chain: ETVVTEVLGHRVTLPCLYSSWSHNSNSMCWGKDQCPYSGCKEALIRTDGMRVTSRKSAKYRLQGTIPRGDVSLTILNPSESDSGVYCCRIEVPGWFNDVKINVRLNLQRASTTTHRTATTTTRRTTTTSPTTTRQMTTTPAALPTTVVTTPDLTTGTPLQMTTIAVFTTANTCLSLTPSTLPEEATGLLTPEPSKEGPILTAESETVLPSDSWSSVESTSADTVLLTSKESKVWDLPSTSHVSMWKTSDSVSSPQPGASDTAVPEQNKTTKTGQMDGIPMSMKNEMPISQRSKRSRLLHSDYMNMTPRRPGPTRKHYQPYAPPRDFAAYRSRVKFSRSADAPAYQQGQNQLYNELNLGRREEYDVLDKRRGRDPEMGGKPRRKNPQEGLYNELQKDKMAEAYSEIGMKGERRRGKGHDGLYQGLSTATKDTYDALHMQALPPRHRFHGLWYMKMMWAWLQAKRKPRKAPSRNICYDAFVSYSERDAYWVENLMVQELENFNPPFKLCLHKRDFIPGKWIIDNIIDSIEKSHKTVFVLSENFVKSEWCKYELDFSHFRLFDENNDAAILILLEPIEKKAIPQRFCKLRKIMNTKTYLEWPMDEAQREGFWVNLRAAIKS
modifications: left off: large carriers
For B4, in the experiment on E7 TCR-T cells [4] (setting [5]), the “CD25 on E7 TCR-T cells (E7-specific activation)” value is given as “strong stimulator of E7-specific activation” and the “CD69 on E7 TCR-T cells (E7-specific activation)” value is reported as “strong stimulator of E7-specific activation”. Also, the “CD25 and CD69 upregulation (E7-specific activation)” value in the experiment with E7 TCR-T cells [4] (24 hours after co-culture, flow cytometry) was “strong stimulatory of E7-specific activation”. Moreover, in the experiment on E7 TCR-T cells [4] (24 hrs following co-culture, controls 23.1%), the “E7 TCR-T cell surface activation markers CD25 and CD69 upregulated” value is on record as 41.2%. Also, in the experiment on E7 TCR-T cells [3], the “stimulation / proliferation responses of E7-specific T cells” value was “stimulatory for E7-specific T cells; also recorded: triggered proliferation responses of E7-specific TCRs”. Besides, the “percentage of dividing E7-TCR-T cells” value in the experiment with E7 TCR-T cells [3] (by 6 days, controls 8%) was determined as 44%.
